Where “and” joins values, the source holds several entries; their conditions need not be identical. Equal values may be shown once. Read-outs that look alike come from different tables or passages of the source.

Data set [1] has as its target 30S IC (Escherichia coli, UniProt P0A705). Conditions: for T. initiation Average / T. initiation Replicates: Fig 7A. The method, then: Fig 7 SETIs and ppGpp tolerance. (A) Translation initiation efficiency as a function of mRNAs along five steps of transition from NS to S conditions. […] Symbols and error bars represent averages of three replicates and standard deviations, respectively (S1 Data). (C) Comparison of ppGpp tolerance as calculated from the ratio of translation initiation efficiencies found in the presence of 0.2 mM ppGpp over the efficiencies obtained in the absence of the alarmone (S1 Data). […] All 30S IC components are as in Fig 1. Dashed line indicates the average tolerance of all mRNAs lacking the SETI element.
The transition towards stringent response entails changes in the composition of all guanosine nucleotides. […] To inquire how the 30S IC responds during the transition from non-stringent (NS) to stringent (S) guanosine nucleotide conditions in the cell, we measured translation initiation along 5 combinations of guanosine nucleotides by thermophoresis, from NS to S conditions (Fig 7A).
The 30S complexes were reconstituted using pure subunits, IFs, tRNAi, mRNA, and nucleotides. The 30S subunits were reactivated by incubation in TAKM20 buffer (as TAKM3.5 but with 20 mM MgCl2) for 1 hour at 37°C prior to use. Generally, 30S ICs were formed by incubation at 37°C for 30 minutes in TAKM7 using 1 μM 30S subunits, 4 μM mRNA, 2 μM IF1, 1 μM IF2, 1.5 μM IF3, 0.5 μM Bpy-Met-tRNA^fMet, and 0.2 mM guanosine nucleotides, unless otherwise stated in the Results or figure captions. Ligand titrations were prepared using serial dilutions using 1:1 mixing of complexes containing the highest concentration of the titrant with complexes lacking only the ligand under investigation. The number of reactions were set up to cover a wide range of concentrations.
MST was measured on 10-μL reactions using standard capillaries (MO-K022, NanoTemper Technologies, Munich, Germany) on a Monolith NT.115 (NanoTemper Technologies, Munich, Germany) at monochromatic LED with power input of 30% and IR laser power of 40%. The local temperature perturbation was expected to be less than 3°C. All measurements were performed at room temperature (22 ± 2°C). Three to four replicates were measured for each investigated reaction to calculate mean and standard deviation. […] KD were calculated using a hyperbolic or quadratic function using Graphpad Prism 6.0 (GraphPad, San Diego, California) or software provided by NanoTemper.

Data set [2] deals with mRNA translation (protein synthesis). As to the kind of experiment: In vitro translation in pure cell-free system (PURExpress, Lumio labelling). The class given is biochemical. Particulars: 2 mM ppGpp; Fig 6G.

B1: mTufA: TufA mRNA with full-length 5′ UTR, in vitro transcribed, codes for EF-Tu (nucleic acid)
chain: GGUUCUAUCGCCUUUAAAGAAGGCUUUAAGAAAGCGAAACCAGUUCUGCUUGAGCCGAUCAUGAAGGUUGAAGUAGAAACUCCGGAAGAGAACACCGGUGACGUUAUCGGUGACUUGAGCCGUCGUCGUGGUAUGCUCAAAGGUCAGGAAUCUGAAGUUACUGGCGUUAAGAUCCACGCUGAAGUACCGCUGUCUGAAAUGUUCGGAUACGCAACUCAGCUGCGUUCUCUGACCAAAGGUCGUGCAUCAUACACUAUGGAAUUCCUGAAGUAUGAUGAAGCGCCGAGUAACGUUGCUCAGGCCGUAAUUGAAGCCCGUGGUAAAUAAGCCUAAGGGUUAAUACCAAAGUCCCGUGCUCUCUCCUGAAGGGGAGAGCACUAUAGUAAGGAAUAUAGCCGUGUCUAAAGAAAAAUUUGAACG
Regarding B1, the “T. initiation Average” value amounted to 81.23% in data set [1] (NS to S 1); 75.89% in data set [1] (NS to S 2); 60.14% in data set [1] (NS to S 3); 45.96% in data set [1] (NS to S 4); 23.01% in data set [1] (NS to S 5). Also, the “T. initiation Replicates” value in data set [1] (NS to S 1) was 79.55% and 82.59% and 81.55%; in data set [1] (NS to S 2), 72.98% and 77.43% and 77.26%; in data set [1] (NS to S 3), 59.08% and 60.37% and 60.97%; in data set [1] (NS to S 4), 44.86% and 46.36% and 46.65%; in data set [1] (NS to S 5), 22.61% and 23.62% and 22.79%. For the same molecule, the “translation initiation efficiency (30S IC formation retained) at S conditions” value in data set [1] (S: 1 mM ppGpp, 0.25 mM pppGpp, 0.14 mM GTP, 0.05 mM GDP) is on record as 25%. Also, the “Translation Replicate” value in data set [2] came to 0.27 a.u.

Values taken from article PMC7010297, “How the initiating ribosome copes with ppGpp to translate mRNAs” (PLoS Biology, 2020).
